Experiments:
B16F10 melanoma cells = assay: B16F10 melanoma growth in mice treated with rIL-9 (i.p.); type: in vivo
Method: (§1) Melanoma cell lines (B16F10 cells or B16F10-ova cells), T cell lymphoma (EL-4 or ovalbumin expressing EL-4 (EG-7)) and Lewis lung carcinoma (LLC1) were grown in RPMI1640 supplemented with 10% FBS, and penicillin/streptomycin. B16F10 cells (2-4×10^5 cells/150 μl/mouse), EL-4 (2×10^5 cells/150 μA/mouse), or LLC1 (5×10^5 cells/150 μA/mouse) were injected subcutaneously into the right or left flank of the mice and tumor development was monitored over time. Tumor volume was calculated by following formula: (major circumference×minor circumference^2)/2. Mice were sacrificed when there was external necrosis or/and tumor volume reached no greater than 2 cm in any direction.
(§2) rIL-9 (5 μg/100 μA PBS/mouse from Cell Sciences, USA) was injected (ip) from day 0 and every third day till the termination of the experiment. In lewis lung carcinoma (LLC-1) model, rIL-9 (50 ng/100 μl PBS/mouse from RnD systems) was used on every alternate day till the termination of experiment. Unlike Cell Science rIL-9 (source: E. coli), rIL-9 from RnD systems is glycosylated and therefore has stronger biological activity compared to Cell Sciences. Thus, 100 times less rIL-9 was used in LLC-1 tumor model experiments compared to melanoma model experiments.

[1] = system: Lewis lung carcinoma (LLC-1) cells; assay: Lewis lung carcinoma (LLC-1) tumor growth in mice treated with rIL-9; type: in vivo
Method: as §1, §2

EL-4 T lymphoma cells = assay: EL-4 tumor growth in mice treated with IL-9; type: in vivo; settings: IL-9 treatment (data not included)
Method: as §1

B16F10 cells = assay: Growth curve assay of tumor cells with rIL-9 (crystal violet); type: cell-based, mouse; settings: melanoma cells and lung carcinoma cells, rIL-9 at different concentrations (FIG. 10D)
Method: Effect of rIL-9 on growth of B16F10 cells were studied by growth curve assay. B16F10 cells were seeded with rIL-9. After each incubation period cells were fixed (10% acetic acid in 10% ethanol). Cells were subsequently stained with 0.4% crystal violet in 10% ethanol for 30 min. Subsequently, 200 μl 10% acetic acid was added. After 30 min, 100 μL solution was transferred into 96-well plate and OD was measured at 595-wavelength.

B1: rIL-9: recombinant interleukin-9 cytokine from Cell Sciences, injected ip 5 μg/mouse in melanoma model (protein, UniProt P15247 19-144, looked up)
Interleukin-9: QRCSTTWGIRDTNYLIENLKDDPPSKCSCSGNVTSCLCLSVPTDDCTTPCYREGLLQLTNATQKSRLLPVFHRVKRIVEVLKNITCPSFSCEKPCNQTMAGNTLSFLKSLLGTFQKTEMQRQKSRP
B16F10 melanoma cells; Rag1-/- C57BL/6 mice (lack T and B cells), rIL-9 vs PBS (FIG. 5D)
  melanoma growth: significantly slowed melanoma growth
B16F10 melanoma cells; mast cell deficient mice (Kit W-sh), B16 melanoma, vs control (FIG. 5E)
  tumor development: no significant difference in tumor development
B16F10 melanoma cells; melanoma bearing mice, rIL-9 (data not shown)
  survival of mice: increased the survival of mice
B16F10 melanoma cells; mice vaccinated with 1 million irradiated melanoma cells, melanoma cells injected 7 days later, rIL-9 vs PBS
  melanoma growth in vaccinated mice: significantly slower melanoma growth
B16F10 melanoma cells; normal WT mice, B16F10 s.c., rIL-9 i.p. vs PBS (FIG. 5B)
  melanoma growth: impaired melanoma growth
[1]; mast cell deficient mice (Kit W-sh), LLC-1, vs control (FIG. 5F)
  tumor development: no significant difference in tumor development
[1]; normal WT mice, rIL-9 vs control group (FIG. 5C)
  LLC-1 tumor development: significantly suppressed
EL-4 T lymphoma cells
  EL-4 tumor growth: neither inhibition nor acceleration
B16F10 cells
  tumor cell growth in vitro: does not affect the growth of these cells in vitro
